Results published in US20250332277A1, “PROTEIN TYROSINE KINASE 7 ANTIBODIES AND ANTIBODY-DRUG CONJUGATES” (Eli Lilly and Company, priority 2024, published 2025).

Legend:
[1] = system: HeLa PTK-7-eGFP overexpressing engineered cells; test: Internalization / lysosomal trafficking by pHrodo fluorescence imaging; format: cell-based, human; settings: 6 μg/ml (40 nM)
Method: Single clone HeLa PTK-7-eGFP overexpressing engineered cells were plated at 5,000 cells per well in a 384-well plate (PhenoPlate 384-well, black, optically clear flat-bottom, tissue-culture treated, PerkinElmer 6057308) in complete culture medium (DMEM, +10% FBS+Glutamax+Pen/Strep). Next day, the cells were treated with 6 μg/ml (40 nM) ADCs or antibodies and pHrodo labeling reagent (Zenon™ pHrodo™ iFL IgG labeling reagents, Catalog number: Z25612, Invitrogen™) with concentration of 6 μg/mL (120 nM). The ADCs or antibodies was mixed with pHrodo labeling reagent for at least 10 min prior to adding to the cells. Then, the cells were imaged using the Opera Phenix Plus high-content screening system every 90 min up to 24 hours. Data were processed and analyzed in Harmony and Microsoft Excel and graphed in GraphPad Prism.

[2] = system: OV90-human PTK7 cells; test: In vitro CDC assay with human serum complement; format: cell-based; settings: PTK-7 expressing OV90 cell line, 3 hours
Method: OV90 cell line was engineered to express high level of human PTK7, having antibody binding capacity of 500,000 (using MESF quantification kit, Bangs Laboratories). OV90-human PTK7 cells were added in white clear-bottom 96-well tissue culture plates in assay medium (1:1 MCDB105/Medium199+1×GlutaMax+15% Heat Inactivated Fetal Bovine Serum) and incubated in the incubator at 37° C. with 5% CO2 overnight. Next day, 50 μL/well antibodies were added at final working concentration from 200 nM, 1:3 serially diluted in assay medium and incubated at 37° C. with 5% CO2 for one hour. Diluted human serum complement (1:3) was then added at 50 μL/well in assay medium and incubated at 37° C. with 5% CO2 for 3 hours. Plate was read using CellTiter-Glo Luminescent Cell Viability Assay. 100 μL/well CellTiter-Glo reagent were incubated in plates at room temperature for 10 min. Luminescence was read on a SpectraMax M5e. RLUs (Relative Light Units) were obtained with SoftMax Pro 5.4. Percentage of cell killing was calculated against no treatment. Data was graphed and analyzed using GraphPad Prism version 9.5.1.

[3] = system: OV90-PTK-7; test: Cell surface binding by flow cytometry, OV90-PTK-7 (high expression); format: cell-based, human; settings: Cofetuzumab max MFI set at 100%
Method: (§1) Certain PTK-7 antibodies of the present disclosure were tested for cell surface binding to three PTK-7 expressing tumor cell lines. Cell lines were selected to represent high, medium, and low receptor densities. OV90-PTK-7, overexpressing engineered ovarian tumor line representing high expression, NCI-H446 human lung cancer cells representing medium endogenous expression and OVCAR-3 human ovarian cancer cells representing low endogenous expression. […] OV90 parental cells and Namalwa-luc-GFP cells were selected as the PTK-7 negative cell lines. Antibody binding was quantified via flow cytometry and both the EC50 of the binding curves and the maximum binding MFI for each antibody were recorded.
(§2) Cells were dissociated using non-enzymatic dissociation buffer for 5 min at 37° C. Cells were counted and aliquoted to a V-bottom polypropylene 96-well plate at 10^5 cells/well. Cells were centrifuged at 1800 rpm×3 min and the supernatant discarded. […]
(§3) Cells were acquired on an Attune Cytpix Cytometer and FCS files generated using Attune™ Cytometric Software (v. 6.0.1). FCS files were then analyzed on FlowJo (v10.8.1). […] Finally, dead cells positive for staining with Zombie Green were excluded and the MFIs of live, Alexa647 positive cells were quantified. Data was graphed and analyzed on GraphPad Prism (v10.1.1).

[4] = system: OVCAR-3 human ovarian cancer cells; test: Cell surface binding by flow cytometry, OVCAR3 (low expression); format: cell-based; settings: Cofetuzumab max MFI set at 100%
Method: as §1, §2, §3

[5] = system: NCI-H446 human lung cancer cells; test: Cell surface binding by flow cytometry, NCI-H446 (medium expression); format: cell-based; settings: Cofetuzumab max MFI set at 100%
Method: as §1, §2, §3

[6] = system: Namalwa-Luc-GFP cells co-cultured with NCI-H446; test: Bystander effect on Namalwa-Luc-GFP co-cultured with NCI-H446 (ONE-Glo); format: cell-based; settings: ratio 9:1, 7-days treatment, Namalwa-Luc-GFP killing
Method: (§4) In flat clear bottom 96-well plates, OV90-PTK-7: Namalwa-Luc-GFP clone cells were mixed and seeded at a total of 3000 cells/well/100 μL with a ratio of 2:1 in culture medium (1:1 MCDB105: Medium 199+15% Heat Inactivated Fetal Bovine Serum+1×Glutamax). Namalwa-Luc-GFP cells were negative for PTK-7 expression. Plates were incubated at 37° C. with 5% CO2 overnight. Next day, ADCs were added at final working concentration from 50 nM, 1:4 serially diluted in culture medium. Plates were covered with Breathe-Easy® sealing membrane. Plates were read after 5-days treatment using ONE-Glo™ Luciferase Assay System. 100 μL/well ONE-Glo™ Assay reagent was incubated in plates at room temperature for 10 min. Luminescence was read in the SpectraMax M5e. RLUs (Relative Light Units) were obtained with SoftMax Pro 5.4. Percentage of Namalwa-Luc-GFP killing was calculated against no treatment as 0%. Data was graphed and analyzed using Graphpad Prism version v10.1.1. IC50 was determined via log (inhibitor) vs. response (three parameters) curve fitting for ADC cytotoxicity.
In flat clear bottom 96-well plates, NCI-H446: Namalwa-Luc-GFP clone cells were mixed and seeded at a total of 5000 cells/well/100 μL with a ratio of 9:1 in culture medium (RPMI 1640+10% Heat Inactivated Fetal Bovine Serum+1× Glutamax+1 mM sodium pyruvate). […] Plates were read after 7-days treatment using ONE-Glo™ Luciferase Assay System.

[7] = system: OVCAR3; test: OVCAR3 tumor xenograft model; format: in vivo, mice; settings: OVCAR3 (Day 61); single intravenous dose 2 mg/kg
Method: Tumors were measured biweekly using a digital caliper.

[8] = system: OVCAR-3; test: ADC cytotoxicity (CellTiter-Glo) on low PTK-7 expressing cells; format: cell-based, human; settings: 7 days treatment
Method: OVCAR3 cells were seeded in white clear-bottom 96-well tissue culture plates in culture medium (OVCAR3: ATCC modified RPMI 1640+1× GlutaMax+20% Heat Inactivated Fetal Bovine Serum+10 μg/mL bovine insulin). Cells were incubated at 37° C. with 5% CO2 overnight. Next day, ADCs were added at final working concentration from 200 nM, 1:4 serially diluted in culture medium. Plates were covered with Breathe-Easy® sealing membrane and incubated at 37° C. with 5% CO2. Plates were read after 7 days treatment using CellTiter-Glo Luminescent Cell Viability Assay. 100 μL/well CellTiter-Glo reagent were incubated in plates at room temperature for 10 min. Luminescence was read in the SpectraMax M5e. RLUs (Relative Light Units) were obtained with SoftMax Pro 5.4. Percentage of cell killing was calculated against no treatment as 0%. Data was graphed and analyzed using Graphpad Prism version v10.1.1. IC50 was determined via log (inhibitor) vs. response-variable slope (four parameters) curve fitting.

[9] = system: Namalwa-Luc-GFP cells co-cultured with OV90-PTK-7; test: Bystander effect on Namalwa-Luc-GFP co-cultured with OV90-PTK-7 (ONE-Glo); format: cell-based; settings: OV90-PTK-7 + Namalwa-Luc-GFP, ratio 2:1; 5-days treatment; Namalwa-Luc-GFP killing
Method: as §4

B1: Ab4: fully human PTK-7 antibody, human IgG1-AAS (L234A/L235A/D265S), kappa; HC SEQ ID NO: 32, LC SEQ ID NO: 33 (antibody)
heavy: EVQLVESGGGLVKPGGSLRLSCAASGFTFSSYSMNWVRQAPGKGLEWVSSIDSSSSFIYYADSVKGRFTISRDNAKNSLYLQMNSLRAEDTAVYYCARGTGLFDFWGQGTLVTVSSASTKGPSVFPLAPSSKSTSGGTAALGCLVKDYFPEPVTVSWNSGALTSGVHTFPAVLQSSGLYSLSSVVTVPSSSLGTQTYICNVNHKPSNTKVDKRVEPKSCDKTHTCPPCPAPEAAGGPSVFLFPPKPKDTLMISRTPEVTCVVVSVSHEDPEVKFNWYVDGVEVHNAKTKPREEQYNSTYRVVSVLTVLHQDWLNGKEYKCKVSNKALPAPIEKTISKAKGQPREPQVYTLPPSREEMTKNQVSLTCLVKGFYPSDIAVEWESNGQPENNYKTTPPVLDSDGSFFLYSKLTVDKSRWQQGNVFSCSVMHEALHNHYTQKSLSLSPGK
light: EIVLTQSPGTLSLSPGERATLSCRASQSFSSSYLAWYQQKPGQAPRLLIYGASSRATGIPDRFSGSGSGTDFTLTISRLEPEDFAVYYCQQYGRTPWTFGQGTKVEIKRTVAAPSVFIFPPSDEQLKSGTASVVCLLNNFYPREAKVQWKVDNALQSGNSQESVTEQDSKDSTYSLSSTLTLSKADYEKHKVYACEVTHQGLSSPVTKSFNRGEC
pHrodo intensity signal at 24 hrs ([1]; Antibodies): 2.83 ± 0.18

B2: Ab1: fully human PTK-7 antibody, human IgG1-AAS (L234A/L235A/D265S), kappa; HC SEQ ID NO: 2, LC SEQ ID NO: 3 (antibody)
heavy: EVQLVESGGGLVKPGGSLRLSCAASGFTFSSYIMNWVRQAPGKGLEWVSSISSSSTFIYYADSVKGRFTISRDNAKNSLYLQMNSLRAEDTAVYYCAKGFDYWGQGTLVTVSSASTKGPSVFPLAPSSKSTSGGTAALGCLVKDYFPEPVTVSWNSGALTSGVHTFPAVLQSSGLYSLSSVVTVPSSSLGTQTYICNVNHKPSNTKVDKRVEPKSCDKTHTCPPCPAPEAAGGPSVFLFPPKPKDTLMISRTPEVTCVVVSVSHEDPEVKFNWYVDGVEVHNAKTKPREEQYNSTYRVVSVLTVLHQDWLNGKEYKCKVSNKALPAPIEKTISKAKGQPREPQVYTLPPSREEMTKNQVSLTCLVKGFYPSDIAVEWESNGQPENNYKTTPPVLDSDGSFFLYSKLTVDKSRWQQGNVFSCSVMHEALHNHYTQKSLSLSPGK
light: DIQLTQSPSFLSASVGDRVTITCRASQDISSYLVWYQQKPGKAPKLLIYAASTLQSGVPSRFSGSGSGTEFTLTISSLQPEDFATYYCQQLNTYPRTFGQGTKVEIKRTVAAPSVFIFPPSDEQLKSGTASVVCLLNNFYPREAKVQWKVDNALQSGNSQESVTEQDSKDSTYSLSSTLTLSKADYEKHKVYACEVTHQGLSSPVTKSFNRGEC
pHrodo intensity signal at 24 hrs ([1]; Antibodies): 3.00 ± 0.1

B3: Cofetuzumab: humanized anti-PTK-7 IgG1 antibody (hu6M024) with the sequence as disclosed in WO2012112943 (antibody, chains of the INN, looked up, V domains shown)
VH: QVQLVQSGPEVKKPGASVKVSCKASGYTFTDYAVHWVRQAPGKRLEWIGVISTYNDYTYNNQDFKGRVTMTRDTSASTAYMELSRLRSEDTAVYYCARGNSYFYALDYWGQGTSVTVSS
VL: EIVLTQSPATLSLSPGERATLSCRASESVDSYGKSFMHWYQQKPGQAPRLLIYRASNLESGIPARFSGSGSGTDFTLTISSLEPEDFAVYYCQQSNEDPWTFGGGTKLEIK
CDC potential [2]: did not show CDC potential
pHrodo intensity signal at 24 hrs ([1]; Antibodies): 2.44 ± 0.14
% of Cofetuzumab (Average Max MFI) [3]: 100%
% of Cofetuzumab (Average Max MFI) [4]: 100%
% of Cofetuzumab (Average Max MFI) [5]: 100%

B4: Cofetuzumab-Pelidotin: ADC with a cleavable valine-citrulline linker, auristatin-0101 as the payload with a drug-to-antibody ratio (DAR) of 4 (conjugate, chains of the INN, looked up)
VH: QVQLVQSGPEVKKPGASVKVSCKASGYTFTDYAVHWVRQAPGKRLEWIGVISTYNDYTYNNQDFKGRVTMTRDTSASTAYMELSRLRSEDTAVYYCARGNSYFYALDYWGQGTSVTVSS
VL: EIVLTQSPATLSLSPGERATLSCRASESVDSYGKSFMHWYQQKPGQAPRLLIYRASNLESGIPARFSGSGSGTDFTLTISSLEPEDFAVYYCQQSNEDPWTFGGGTKLEIK
modifications: pelidotin: vc linker, auristatin-0101, DAR 4
IC50 [6]: 3.18 nM
pHrodo intensity signal at 24 hrs ([1]; ADCs): 1.71 ± 0.06
Mean tumor volume [7]: 352.26 mm^3
IC50 [8]: 2.53 nM
IC50 [9]: 1.5 nM
